Test system: Hep-2 cells
Assay: Immunofluorescence localization of PML and DipA in Hep-2 cells
Type: cell-based
Settings: 5 μg of gamma interferon for 18 hrs before fixation
Method: Hep-2 cells were grown in round coverslips and maintained in DMEM supplemented with 10% fetal calf serum in a humidified atmosphere containing 5% CO2. Cells were treated with 5 μg of gamma interferon (Biosource) or mocked treated for 18 hrs before fixation. Cells were fixed by one of two methods. In a first method, the cells were fixed at room temperature for 5 min with freshly prepared 1% paraformaldehyde in PBS, washed with PBS, and permeabilized for 20 min on ice with 0.2% Triton X-100 in PBS (v/v) (Sigma Chemical Co.). Antigen localization (PML and DipA) was determined after incubation of permeabilized cells with rabbit antiserum (DipA Ab) and a specific PML mab diluted in PBS for 1 hr at RT. Cells were double labeled with the respective second antibodies labeled either with FITC or Texas red, using FITC for the structures with the lowest staining intensity.
Alternatively, cells were fixed at −20° C. for 5 min with fresh and cold acetone followed by fresh and cold absolute methanol.
The cells were incubated with the first Ab diluted in PBS-10% calf serum for two hrs at RT in a humidified chamber. Coverslips were washed for 10 min in PBS 0.05% Tween 20. […]
Fluorescence images were analyzed using either the Leica confocal scanning microscope or a Nikon Microphot-SA immunofluorescence microscope. […]

B1: interferon gamma: gamma interferon (Biosource) used to treat Hep-2 cells (protein, UniProt P01579 24-161, looked up)
Interferon gamma: QDPYVKEAENLKKYFNAGHSDVADNGTLFLGILKNWKEESDRKIMQSQIVSFYFKLFKNFKDDQSIQKSVETIKEDMNVKFFNSNKKKRDDFEKLTNYSVTDLNVQRKAIHELIQVMAELSPAAKTGKRKRSQMLFRG
Q: With B1 as the molecule, how does the “co-localization of PML and DipA in the POD structures” value read?
A: increased co-localization of PML and DipA in the POD structures
